Test results taken from the DeepSol protein solubility set.

Experiment: soluble on expression in E. coli; label from the status in PepcDB or PDB records

## MGCSGGDATACANLAQMYENKKNADSNDKENALQLYAVACQGGDMLACNNLGWMFANGSGVPKDYYKAISYYKFSCENGNDMGCYNLGLMSNVNNIYGIDKAQLSQVDLNYLACNAGDMMGCANLGWIYANGDLGAPLNNHYAAKYFQMACDGGILGSCNNLGVLYQKGLGVPQDDQRALDLFSYACDNGFESSCRNYGNFKEHLLRVNPNYGRLFMPYNSYDIPLEHHHHHH
  soluble on expression in E. coli: not soluble

## NCRLFIGGIPKMKKREEILEEIAKVTEGVLDVIVYASAADKMKNRGFAFVEYESHRAAAMARRKLMPGRIQLWGHQIAVDWAEPEIDVDEDVMETV
  soluble on expression in E. coli: soluble

## WLFFRYMAIGGYVGAATVGAAAW
  soluble on expression in E. coli: soluble

## MEEEQLLDYEEEQEEIQDKQPEVGGGDARKTKGTYASIHSSGFRDFLLKPEILRAIGDCGFEHPSEVQHECIPQAILGMDVVCQAKSGMGKTAVFVITTLQQLEPVDGEVSVVCMCHTRELAFQISKEYERFSKYLPGVKVAVFFGGMAIKKDEERLANDCPHIVVGTPGRMLALARSGKLKLDKVKYFVLDECDKMIGDADMRRDVQEIVKMTPQQKQVMMFSATLPKELRTVCKRFMQDPMEVYVDDEAKLTLHGLQQHYVKLKEAEKNRRLLNLLDALEFNQVVIFVKAVKRCEALHQLLTEQNFPSIAIHRQMAQEERLSRYQAFKDFQKRILVATDLFGRGMDIERVNIVFNYDMPEDSDSYLHRVARAGRFGTKGLAITFVSDENDAKTLNSVQDRFDISITELPEKIDVSTYIEGRTN
  soluble on expression in E. coli: not soluble

## TTPTVNATPKIHKRDYQKDVVYLYQFPRIDTVPNLSSFCLKTETFLRAFKIPHEVIETGSLRSRNGTLPFVELNGEHIPDSDLIEVRLRKHFQIPNLSAEDESHATALCRLADNHLLSIIIKYKAAEDAWYSALLRGVPGPNCLKTILKPIVRKLFMKKVHERTGGAIGNFTEDEAEMLCHKDLQAIQDSIKGKYLFGDKITSADCTVFGEVASAYYPFPNKFSRIIDSHYPKLHEYCDRIIEELY
  soluble on expression in E. coli: not soluble

## MEAEEIIGLLKKGDLEKAKDALSKEIDNLSDEELKEILEVAESVAKEKEDIELLKLVVYYYAEFFGIDKLEEFEGIAKEKGYEGLMHLADLYSLLGYPEKALDIYRELLKTDLIKEKEHIGEIYYGIATIHDELQEYDKALEAINEAVKAFKESNNVEKLHQAEVYRAYITFENGDRDKAKEILAGLLPHVTNREIKAQIHLVFKEIFEDEENYEAAIQESLYSLIEGIDTEVFDLAFDGLIDLIWELILEDKFEEIYKSMPMFKVAIPSLKDFFEGVRRIAMYREGKIGREEVSEILMKVKDERLVSILEFLGEAEV
  soluble on expression in E. coli: soluble

## MAFEESLVMVSSLSRLSICTSSAYDEAATKNQPDSCVSTSLENFDGAEADGEVSDDGEGKENVRESDSDKETRGFYSLPVTPSRRRRKLTVSGELDANESNKNGSKCSLRRQRREKKKKGVNGECDVGGREGLTVLTRARGGDRSLRMGLQEVKACRDLGFELEVPVPGRISVSTTGSNFDTQTSSGGDSPIATWRISSPGDDPKEVKARLKVWAQAVALASATRQAS
  soluble on expression in E. coli: not soluble

## MATFGFLSAPLKSTNEVDLVKPLTSYIDNVYNTSDNNRSDVAEAVQELNKLRSKACCQPLDKHQSALDVLTRYYDQLVAIENKIIISATQNPVVFKWKDAFDKGSLFSSRASLSLSDGSFERAAVLFNIGSLMSQIGAAQQFHTDDEIKVSAKLFQQSAGVFARLRDVVLGMVQQEPTPDLMPDTLAALSALMTAQAQEAIYIKGHKDKMKATSMVKISAQVAEFYSEAQKMMSKDIVRGLWDKDWSAIVSGKNLAYQALAQYHQSEVCGEARQIGEQLSRLAESLKLFDTAQKYLPRDITGIWDIYPSVSKAHAAAKKDNDFIYHEKVSDFRTLPTLPKAVLAKPTPMQTPMTPSFRDMFAVLVPVQVHNAMQSYDARKAELVNMETVRMREATQLMNGVLASLNLPAALDDVTSTETLPESLKLKSAKLKQNGGSSEIMRLFSELPTLYQRNEDILTETSRILNEEKESDDTMRKQLGTKWTRMSSEQLTGPLVTEIGKYRGILHTASNADKMVKEKFESHRQGIELLSKNESELRSSIPGQTAHATGETDTVRQLRQFMSQWNEVTTDRELLEKELKNTNCDIANDFLKAMAENQLINEEHISKEKIAQIFGDLKRRVQSSLDTQETLMNQIQAANNTFTGEKTGSSTGAERERILKMLAQASDAYVELKANLEEGTKFYNDLTPILVRLQQKVSDFAFARQTEKEDLMRQLQLSIVSGTNAAQSPANAPPRPPPPRPAAPSVESPIPPPRTQQSMQATPGAPPQYNPYQQQQQPQMQQFQQHPGYYQQPMPYGQPQPMFQPQYQPTFAAPYPTFPGAFPSYQQQWPQQQQQGGFPPNPQFGQQNQQQGGGGGANPFQ
  soluble on expression in E. coli: not soluble

## MYVALWYKHGKPIHGRSWNNGGVVECSFPYKEAELTTKQQLEGQIQVLQYVGDHNNQGFWYEWIKYKDRIEKIDDKHQLVRCGDSFPIFWKRKEGNLLGYVDNKTEEGWFSFNGKVIKQVGPQLNDMYIITRNCVGGPPYCECENCPKLPPPPPIPPPGPPPPRVMHDEWIDIREGDPWPTRKLVKALDKSLDTLPGVSADQYVALWYMQGEPVMGRVWNEGGKVAANFSWFNNEYCKNVGSIQLLVRLGPHVVGYEYGWIPFPEAANFDAGKIWKPVHVNNHKGDISVGVVNLPGGKQILAKVDVRNESYGYGYQGKEHSARGPACASSVTVLCRKALPGYQLDG
  soluble on expression in E. coli: not soluble

## ASVKAVGRVCYSALPSQAHDTLDLIDEGGPFPYSQDGVVFQNREGLLPAHSTGYYHEYTVITPGSPTRGARRIITGQQWQEDYYTADHYASFRRVDFAC
  soluble on expression in E. coli: soluble
